Measurements: paper PMC11331121

Tests used:
Experiment in all cases: SPR
H3K14ac peptide = target: H3K14ac peptide
H3K9ac peptide = target: H3K9ac peptide
H4K5ac peptide = target: H4K5ac peptide
H4K8ac peptide = target: H4K8ac peptide

Kd (H3K14ac peptide): 339 µM
Kd (H3K9ac peptide): 823 µM
Kd (H4K5ac peptide): 925 µM
Kd (H4K8ac peptide): 654 µM
B1: triple Tudor domains (3TD) of Drosophila Eggless/SetDB1, wild type (domain or fragment)
chain: SDYVHEVPPPGEIVRPPIQLGETYYAVKNKAIASWVSIKVIEFTESTAINGNTMKSYKIRYLNTPYQMIKTVTAKHIAYFEPPPVRLTIGTRVIAYFDGTTLSRGKDKGVVQSAFYPGIIAEPLKQANRYRYLIFYDDGYTQYVPHRDVRLVCQASEKVWEDVHAASRDFIQKYVEKYSVDRPMVQCTRGQSMTTESNGTWLYARVIDIDCSLVLMQFEGDKNHTEWIYRGSLRLGPVFRETQNNMNSSSAQQLRVP
